Laboratory results published in patent US20210269525A1.

Assays:
[1] = molecular target: human CD3e (T-cell surface glycoprotein CD3 epsilon chain) (human) (UniProt P07766); assay: flow cytometry, human PBMC, negative control of unstated make-up
[2] = molecular target: monkey CD3e (Macaca fascicularis) on PBMC (Macaca fascicularis) (UniProt Q95LI5); assay: flow cytometry, Macaca fascicularis PBMC, negative control of unstated make-up
[3] = molecular target: monkey CD3e (Macaca fascicularis) on PBMC (Macaca fascicularis) (UniProt Q95LI5); assay: flow cytometry, Macaca fascicularis PBMC, control sample (Table 2: 1:400), AF647-anti-hIgG
[4] = molecular target: monkey CD3e (Macaca fascicularis) on PBMC (Macaca fascicularis) (UniProt Q95LI5); assay: flow cytometry, Macaca fascicularis PBMC, control sample (Table 2: 1:400), AF647-anti-mIgG
[5] = molecular target: human CD3e (T-cell surface glycoprotein CD3 epsilon chain) (human) (UniProt P07766); assay: flow cytometry, human PBMC of subject 1 (PBMC human1#), negative control, AF647-anti-mIgG, PerCP anti-hTcRβ
[6] = molecular target: human CD3e (T-cell surface glycoprotein CD3 epsilon chain) (human) (UniProt P07766); assay: flow cytometry, human PBMC of subject 2 (PBMC human2#), negative control, AF647-anti-mIgG, PerCP anti-hTcRβ

Chain of monkey CD3e (Macaca fascicularis) on PBMC (Macaca fascicularis) (Q95LI5 22-198 limits assumed): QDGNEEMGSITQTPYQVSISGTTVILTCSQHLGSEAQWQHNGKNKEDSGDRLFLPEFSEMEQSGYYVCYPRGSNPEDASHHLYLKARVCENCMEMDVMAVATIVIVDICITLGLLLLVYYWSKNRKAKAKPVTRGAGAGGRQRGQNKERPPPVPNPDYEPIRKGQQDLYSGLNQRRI

For NC, the upper left quadrant, percent of cells AF647+ / hTcRβ-PerCP- [1] was 0.24% and the upper left quadrant, percent of cells AF647+ / hTcRβ-PerCP- [2] was 0.162%.
For hIgG (antibody), the FL4-H, SSC-H subset (percent of cells in the AF647-positive gate) [3] was 3.27%.
Work on mIgG (antibody) yielded an FL4-H, SSC-H subset (percent of cells in the AF647-positive gate) [4] of 0.58%, a Q1, percent of cells AF647+ / hTcRβ-PerCP- [5] of 0.00361% and a Q2, percent of cells AF647+ / hTcRβ-PerCP+ [5] of 0.19%. The Q1, percent of cells AF647+ / hTcRβ-PerCP- [6] was 0.0036% and the Q2, percent of cells AF647+ / hTcRβ-PerCP+ [6] was 0.21%.
